The values that follow come from article PMC12159680, “Nuclear protein FNBP4: A novel inhibitor of non-diaphanous formin FMN1-mediated actin cytoskeleton dynamics” (The Journal of Biological Chemistry, 2025).

For experiment [1], the target named is FMN1 FH1-FH2 (Mus musculus) (UniProt Q05860). Conditions: cited from earlier work.
For a further experiment, the target named is T1, Extended FH2 FMN1 (mouse, UniProt Q05860 961-1466).
T1 sequence (looked up): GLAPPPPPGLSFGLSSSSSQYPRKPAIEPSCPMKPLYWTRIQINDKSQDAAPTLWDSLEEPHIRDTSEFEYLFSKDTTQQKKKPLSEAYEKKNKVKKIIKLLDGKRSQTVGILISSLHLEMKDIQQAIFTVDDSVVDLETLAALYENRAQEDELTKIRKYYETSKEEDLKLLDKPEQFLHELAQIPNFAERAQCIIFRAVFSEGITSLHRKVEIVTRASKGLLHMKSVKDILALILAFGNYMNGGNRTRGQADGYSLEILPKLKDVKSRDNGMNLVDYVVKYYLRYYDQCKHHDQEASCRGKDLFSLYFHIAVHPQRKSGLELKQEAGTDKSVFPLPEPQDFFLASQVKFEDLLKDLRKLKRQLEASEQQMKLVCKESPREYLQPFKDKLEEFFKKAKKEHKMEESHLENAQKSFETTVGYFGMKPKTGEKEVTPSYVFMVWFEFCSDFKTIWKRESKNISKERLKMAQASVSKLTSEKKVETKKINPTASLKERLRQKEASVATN
Put plainly: SPR; Biacore T200; WW1-WW2 FNBP4 amine-coupled to a CM5 chip (1016.5 RU); Extended FH2 FMN1 flowed over at various concentrations; HBS-N running buffer; 25 °C; association 120 s, dissociation 380 s; global fit to a 1:1 Langmuir model. Conditions: both partners purified.

Chain of FMN1 FH1-FH2 (Mus musculus) (Q05860 870-1435): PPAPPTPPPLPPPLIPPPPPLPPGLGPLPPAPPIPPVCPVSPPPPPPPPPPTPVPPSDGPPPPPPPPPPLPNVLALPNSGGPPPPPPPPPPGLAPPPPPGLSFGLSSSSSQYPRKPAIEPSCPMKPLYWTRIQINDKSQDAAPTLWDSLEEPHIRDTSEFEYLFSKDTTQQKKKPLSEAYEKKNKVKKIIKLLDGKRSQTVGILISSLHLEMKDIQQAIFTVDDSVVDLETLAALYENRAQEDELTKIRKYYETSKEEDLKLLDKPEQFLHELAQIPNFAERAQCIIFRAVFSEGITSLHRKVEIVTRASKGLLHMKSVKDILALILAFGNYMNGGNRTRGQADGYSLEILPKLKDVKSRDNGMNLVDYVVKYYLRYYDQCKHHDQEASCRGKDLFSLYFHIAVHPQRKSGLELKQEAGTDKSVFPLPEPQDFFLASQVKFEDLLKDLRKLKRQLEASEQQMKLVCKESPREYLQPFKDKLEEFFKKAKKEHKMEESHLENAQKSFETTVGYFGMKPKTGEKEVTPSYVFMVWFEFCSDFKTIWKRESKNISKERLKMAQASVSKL

With FNBP4 WW1-WW2 (from UniProt Q6ZQ03), the Kd in experiment [1] is 0.002 µM.

B1: N-terminal WW1-WW2 FNBP4 (domain or fragment, human, UniProt Q8N3X1 214-629, looked up)
chain: GIEMGDWQEVWDENTGCYYYWNTQTNEVTWELPQYLATQVQGLQHYQPSSVPGAETSFVVNTDIYSKEKTISVSSSKSGPVIAKREVKKEVNEGIQALSNSEEEKKGVAASLLAPLLPEGIKEEEERWRRKVICKEEPVSEVKETSTTVEEATTIVKPQEIMLDNIEDPSQEDLCSVVQSGESEEEEEQDTLELELVLERKKAELRALEEGDGSVSGSSPRSDISQPASQDGMRRLMSKRGKWKMFVRATSPESTSRSSSKTGRDTPENGETAIGAENSEKIDENSDKEMEVEESPEKIKVQTTPKVEEEQDLKFQIGELANTLTSKFEFLGINRQSISNFHVLLLQTETRIADWREGALNGNYLKRKLQDAAEQLKQYEINATPKGWSCHWDRDHRRYFYVNEQSGESQWEFPDG
In the experiment with Extended FH2 FMN1, B1 came in with a Kd of 0.0365 µM, a koff of 0.000803 s⁻¹ and a kon of 22500 M⁻¹ s⁻¹.
